Like-named read-outs stand apart in the source and are kept apart here.
Experiments:
[1] = cited from earlier work
[2] = Isolation and structural analysis (NMR, methylation analysis) of α-glucosylated Rebaudioside A products; type: biochemical; conditions: 10 U/mL enzyme, 50 mM Rebaudioside A, 2 x 1000 mM sucrose, 24 hours
Protocol: For quantitative synthesis of α-glucosylated Rebaudioside A products using GTF180-ΔN and its derived mutants, incubations were performed in 5 mL 25 mM sodium acetate (pH 4.7), 1 mM CaCl2, 50 mM steviol glycoside with two batches of 1,000 mM equivalent of sucrose donor (t=0 and 3 h) to a total of 2,000 mM sucrose, using 10 U/mL enzyme at 37° C. for 24 hours. Products were purified from the incubation mixture by solid phase extraction using Strata-X 33u Polymeric Reversed Phase columns (Phenomenex). Products were separated on a Luna 10 μm NH2 semi-preparative chromatography column (250 mm×10 mm, Phenomenex) and were manually collected at a flow-rate of 4.6 mL/min, starting with a 2 min isocratic step of 80% solvent A followed by a linear gradient of 80 to 50% solvent A over 38 min (solvent A=acetonitrile; solvent B=0.025% acetic acid). The solvent of the collected fractions was evaporated under a stream of nitrogen gas and the dried materials were dissolved in deionized water.
Resolution-enhanced 1D/2D 500-MHz ^1H NMR spectra were recorded in D2O on a Bruker DRX-500 spectrometer (Bijvoet Center, Department of NMR Spectroscopy, Utrecht University) at a probe temperature of 334K. Data acquisition and processing were done with Bruker Topspin 2.1. Prior to analysis, samples were exchanged twice in D2O (99.9 atom % D, Cambridge Isotope Laboratories, Inc., Andover, Mass.) with intermediate lyophilization, and then dissolved in 0.6 mL D2O. […] The 2D TOCSY spectra were recorded using an MLEV-17 (composite pulse devised by Levitt et al (1982)) mixing sequence with spin-lock times of 40-200 ms. The 2D ROESY spectra were recorded using standard Bruker XWINNMR software with mixing time of 200 ms. […] Natural abundance 2D ^13C-^1H HSQC experiments (^1H frequency 500.0821 MHz, ^13C frequency 125.7552 MHz) were recorded without decoupling during acquisition of the ^1H FID. […]

[3] = Time course of Rebaudioside A utilization and RebAG1 formation (NP-HPLC); type: biochemical; conditions: 1000 mM sucrose, 10 U/mL enzyme
Protocol: (§1) Incubation reactions were performed in 25 mM sodium acetate (pH 4.7), 1 mM CaCl2, 50 to 1,000 mM sucrose, 50-100 mM steviol glycoside, and 2-30 U/mL purified GTF180-ΔN enzyme or GTF180-ΔN mutant enzyme at 37° C. for 15 min to 24 hours. Reactions were stopped by heat inactivation (100° C. for 15 min). From the inactivated samples 250 uL was mixed with 1000 ul of 10 mM catechol (internal standard) and subsequently purified by solid phase extraction using Strata-X 33u Polymeric Reversed Phase columns (Phenomenex). For HPLC analysis 20 μL of the purified sample was injected on a Luna 10 μm NH2 chromatography column (250 mm×4.6 mm; Phenomenex). Reaction components were separated at a flow-rate of 1 mL/min under gradient elution conditions, starting with a 2 min isocratic step of 70% solvent A followed by a linear gradient from 70 to 55% solvent A over 9 min (solvent A=acetonitrile; solvent B=0.025% acetic acid). Rebaudioside A and the mono-α-glucosylated Rebaudioside A product concentrations were determined with NP-HPLC, using their corresponding calibration curves ranging from 1.56 to 50 mM. All data were normalized with catechol as internal standard. The standard deviation of the response was less than 5%. […]

[4] = Screening glucan and fructansucrase enzymes for α-glucosylation of Rebaudioside A; type: biochemical; conditions: compared to GTF180-ΔN where comparative
Protocol: as §1

[5] = Polymerization (oligosaccharide and glucan formation from sucrose) activity; type: biochemical; conditions: data not shown
Protocol: Over a hundred glucan and fructansucrase wild type and mutant enzymes, mostly from Lactobacillus reuteri, were screened for Rebaudioside A α-glucosylation. For this, enzymes were incubated in 50 mM Rebaudioside A (FIG. 1) and 1000 mM sucrose for 3 hours. […] This is a clear advantage during downstream processing, the purification of the α-glucosylated Rebaudioside A products from mono- and disaccharides, oligosaccharides and glucans. By eliminating α-glucan synthesis, the most important side reaction, higher glycosylation yields were obtained for Rebaudioside A. At lower sucrose concentration (200 mM), these mutants had similar or even higher transglucosylating activity with Rebaudioside A than GTF180-ΔN and mutants S1137Y and Q1140E (data not shown).

[6] = in water and in carbonated beverage base

For `C=C1C[C@@]23CC[C@H]4[C@@](C)(CCC[C@@]4(C)C(=O)O[C@@H]4O[C@H](CO)[C@@H](O)[C@H](O[C@@H]5O[C@H](CO)[C@@H](O)[C@H](O)[C@H]5O)[C@H]4O[C@@H]4O[C@H](CO)[C@@H](O)[C@H](O)[C@H]4O)[C@@H]2CC[C@]1(O[C@@H]1O[C@H](CO)[C@@H](O)[C@H](O[C@@H]2O[C@H](CO)[C@@H](O)[C@H](O)[C@H]2O)[C@H]1O[C@@H]1O[C@H](CO)[C@@H](O)[C@H](O)[C@H]1O)C3` [Rebaudioside M], the “bitterness compared to Rebaudioside A” value ([1]; in acidified water) is listed as “reduced bitterness”, the “sweetness compared to Rebaudioside A” value ([1]; in acidified water) is listed as “higher sweetness” and the “bitterness compared to Rebaudioside A” value ([1]; in water solution) is listed as “reduced bitterness”.

In the case of `C=C1C[C@@]23CC[C@H]4[C@@](C)(CCC[C@@]4(C)C(=O)O[C@@H]4O[C@H](CO)[C@@H](O)[C@H](O)[C@H]4O[C@@H]4O[C@H](CO)[C@@H](O)[C@H](O)[C@H]4O)[C@@H]2CC[C@]1(O[C@@H]1O[C@H](CO)[C@@H](O)[C@H](O[C@@H]2O[C@H](CO)[C@@H](O)[C@H](O)[C@H]2O)[C@H]1O[C@@H]1O[C@H](CO)[C@@H](O)[C@H](O)[C@H]1O)C3` [Rebaudioside D], the “bitterness compared to Rebaudioside A” value [1, 6] is given as “decreased bitterness” and the “sweetness compared to Rebaudioside A” value [1, 6] is given as “increased sweetness”.

B1: GTF180-ΔN: N-terminal truncated GTF180 (AY697430) of Lactobacillus reuteri 180; Met-Gly-742-1772-His6 (protein, listed as Lactobacillus reuteri)
chain: MGINGQQYYIDPTTGQPRKNFLLQNGNDWIYFDKDTGAGTNALKLQFDKGTISADEQYRRGNEAYSYDDKSIENVNGYLTADTWYRPKQILKDGTTWTDSKETDMRPILMVWWPNTVTQAYYLNYMKQYGNLLPASLPSFSTDADSAELNHYSELVQQNIEKRISETGSTDWLRTLMHEFVTKNSMWNKDSENVDYGGLQLQGGFLKYVNSDLTKYANSDWRLMNRTATNIDGKNYGGAEFLLANDIDNSNPVVQAEELNWLYYLMNFGTITGNNPEANFDGIRVDAVDNVDVDLLSIARDYFNAAYNMEQSDASANKHINILEDWGWDDPAYVNKIGNPQLTMDDRLRNAIMDTLSGAPDKNQALNKLITQSLVNRANDNTENAVIPSYNFVRAHDSNAQDQIRQAIQAATGKPYGEFNLDDEKKGMEAYINDQNSTNKKWNLYNMPSAYTILLTNKDSVPRVYYGDLYQDGGQYMEHKTRYFDTITNLLKTRVKYVAGGQTMSVDKNGILTNVRFGKGAMNATDTGTDETRTEGIGVVISNNTNLKLNDGESVVLHMGAAHKNQKYRAVILTTEDGVKNYTNDTDAPVAYTDANGDLHFTNTNLDGQQYTAVRGYANPDVTGYLAVWVPAGAADDQDARTAPSDEAHTTKTAYRSNAALDSNVIYEGFSNFIYWPTTESERTNVRIAQNADLFKSWGITTFELAPQYNSSKDGTFLDSIIDNGYAFTDRYDLGMSTPNKYGSDEDLRNALQALHKAGLQAIADWVPDQIYNLPGKEAVTVTRSDDHGTTWEVSPIKNVVYITNTIGGGEYQKKYGGEFLDTLQKEYPQLFSQVYPVTQTTIDPSVKIKEWSAKYFNGTNILHRGAGYVLRSNDGKYYNLGTSTQQFLPSQLSVQDNEGYGFVKEGNNYHYYDENKQMVKDAFIQDSVGNWYYLDKNGNMVANQSPVEISSNGASGTYLFLNNGTSFRSGLVKTDAGTYYYDGDGRMVRNQTVSDGAMTYVLDENGKLVSESFDSSATEAHPLKPGDLNGQK
For B1, the “share of di-glucosylated Rebaudioside A product elongated with an (α1→3)-linked glucose” value [2] was about 75%, the “share of di-glucosylated Rebaudioside A product elongated with another (α1→6)-linked glucose” value [2] was about 25% and the “share of mono-α-glucosylated product with (α1→6)-linked glucose at the C-19 β-linked glucose” value [2] was 100%. The “Rebaudioside A conversion” value ([3]; 50 mM Rebaudioside A) was 55% and the “RebAG1 formed from 50 mM Rebaudioside A” value [3] was about 13 mM.

B2: GTF180-ΔN-XM2: single amino acid mutant (W1065L) of GTF180-ΔN (protein, listed as Lactobacillus reuteri)
chain: MGINGQQYYIDPTTGQPRKNFLLQNGNDWIYFDKDTGAGTNALKLQFDKGTISADEQYRRGNEAYSYDDKSIENVNGYLTADTWYRPKQILKDGTTWTDSKETDMRPILMVWWPNTVTQAYYLNYMKQYGNLLPASLPSFSTDADSAELNHYSELVQQNIEKRISETGSTDWLRTLMHEFVTKNSMWNKDSENVDYGGLQLQGGFLKYVNSDLTKYANSDWRLMNRTATNIDGKNYGGAEFLLANDIDNSNPVVQAEELNWLYYLMNFGTITGNNPEANFDGIRVDAVDNVDVDLLSIARDYFNAAYNMEQSDASANKHINILEDLGWDDPAYVNKIGNPQLTMDDRLRNAIMDTLSGAPDKNQALNKLITQSLVNRANDNTENAVIPSYNFVRAHDSNAQDQIRQAIQAATGKPYGEFNLDDEKKGMEAYINDQNSTNKKWNLYNMPSAYTILLTNKDSVPRVYYGDLYQDGGQYMEHKTRYFDTITNLLKTRVKYVAGGQTMSVDKNGILTNVRFGKGAMNATDTGTDETRTEGIGVVISNNTNLKLNDGESVVLHMGAAHKNQKYRAVILTTEDGVKNYTNDTDAPVAYTDANGDLHFTNTNLDGQQYTAVRGYANPDVTGYLAVWVPAGAADDQDARTAPSDEAHTTKTAYRSNAALDSNVIYEGFSNFIYWPTTESERTNVRIAQNADLFKSWGITTFELAPQYNSSKDGTFLDSIIDNGYAFTDRYDLGMSTPNKYGSDEDLRNALQALHKAGLQAIADWVPDQIYNLPGKEAVTVTRSDDHGTTWEVSPIKNVVYITNTIGGGEYQKKYGGEFLDTLQKEYPQLFSQVYPVTQTTIDPSVKIKEWSAKYFNGTNILHRGAGYVLRSNDGKYYNLGTSTQQFLPSQLSVQDNEGYGFVKEGNNYHYYDENKQMVKDAFIQDSVGNWYYLDKNGNMVANQSPVEISSNGASGTYLFLNNGTSFRSGLVKTDAGTYYYDGDGRMVRNQTVSDGAMTYVLDENGKLVSESFDSSATEAHPLKPGDLNGQK
For B2, the “α-glucosylation / transglucosylating activity towards Rebaudioside A (in words)” value [4] was “able to α-glucosylate Rebaudioside A” and the “polymerization (oligosaccharide and glucan formation) activity” value [5] was “almost no polymerization”.
